Measurements published in publication PMC4557304.

How the values were obtained:
Assay in all cases: EMSA; with POLγB; 10 mM Mg2+, 3 mM dCTP, 0.3 mM ddGTP; EMSA: 15 µl, 10 fmol DNA, 450 fmol POLγA, 1.8 pmol POLγB where indicated; 20 mM Tris-HCl pH 7.5, 1 mM DTT, 0.1 mg/ml BSA, 10 mM MgCl2, 10% glycerol, 3 mM dCTP
[1] = target: POLγA S305R;POLγB (human?;human?, UniProt P54098;Q9UHN1 26-1239;25-485, S305R|)
[2] = target: POLγA G303R;POLγB (human?;human?, UniProt P54098;Q9UHN1 26-1239;25-485, G303R|)
[3] = target: POLγA R232H;POLγB (human?;human?, UniProt P54098;Q9UHN1 26-1239;25-485, R232H|)
[4] = target: POLγA L304R;POLγB (human?;human?, UniProt P54098;Q9UHN1 26-1239;25-485, L304R|)
[5] = target: POLγA G268A;POLγB (human?;human?, UniProt P54098;Q9UHN1 26-1239;25-485, G268A|)
[6] = target: POLγA R275Q;POLγB (human?;human?, UniProt P54098;Q9UHN1 26-1239;25-485, R275Q|)
[7] = target: POLγA H277L;POLγB (human?;human?, UniProt P54098;Q9UHN1 26-1239;25-485, H277L|)

Measured: binding result

Sequence of POLγA R275Q;POLγB (P54098 26-1239 R275Q, chain 1 of 2): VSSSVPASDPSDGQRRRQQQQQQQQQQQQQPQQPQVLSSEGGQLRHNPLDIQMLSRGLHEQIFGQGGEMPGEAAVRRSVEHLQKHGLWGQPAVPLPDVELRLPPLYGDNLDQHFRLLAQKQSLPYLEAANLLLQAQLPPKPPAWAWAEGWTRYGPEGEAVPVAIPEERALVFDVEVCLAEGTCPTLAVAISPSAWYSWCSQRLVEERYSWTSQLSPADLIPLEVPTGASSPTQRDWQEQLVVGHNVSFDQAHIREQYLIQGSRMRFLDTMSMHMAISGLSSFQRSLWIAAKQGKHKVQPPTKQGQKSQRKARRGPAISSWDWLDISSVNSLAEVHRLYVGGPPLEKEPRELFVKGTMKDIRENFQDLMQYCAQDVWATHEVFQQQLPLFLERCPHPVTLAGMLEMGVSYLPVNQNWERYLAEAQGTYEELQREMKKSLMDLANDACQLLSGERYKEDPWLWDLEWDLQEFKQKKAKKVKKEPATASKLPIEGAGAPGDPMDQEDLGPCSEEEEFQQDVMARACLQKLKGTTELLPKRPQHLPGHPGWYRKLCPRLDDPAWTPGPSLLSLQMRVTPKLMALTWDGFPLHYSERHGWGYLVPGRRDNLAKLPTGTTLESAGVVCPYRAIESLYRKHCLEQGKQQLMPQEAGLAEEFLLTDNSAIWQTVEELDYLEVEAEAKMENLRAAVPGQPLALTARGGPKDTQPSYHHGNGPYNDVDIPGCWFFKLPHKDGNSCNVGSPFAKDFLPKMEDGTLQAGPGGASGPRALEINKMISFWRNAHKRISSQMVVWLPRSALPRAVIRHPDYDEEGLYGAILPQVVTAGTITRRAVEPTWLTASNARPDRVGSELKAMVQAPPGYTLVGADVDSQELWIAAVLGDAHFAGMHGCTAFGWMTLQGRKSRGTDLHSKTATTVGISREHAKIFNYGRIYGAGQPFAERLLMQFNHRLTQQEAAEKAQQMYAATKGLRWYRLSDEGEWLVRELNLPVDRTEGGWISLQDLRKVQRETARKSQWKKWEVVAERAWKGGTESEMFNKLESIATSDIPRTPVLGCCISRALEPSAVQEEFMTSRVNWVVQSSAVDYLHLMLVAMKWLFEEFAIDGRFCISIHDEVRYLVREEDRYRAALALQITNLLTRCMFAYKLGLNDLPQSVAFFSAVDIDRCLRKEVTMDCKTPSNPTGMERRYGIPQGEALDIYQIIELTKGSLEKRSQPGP
Sequence of POLγA R275Q;POLγB (Q9UHN1 25-485, chain 2 of 2): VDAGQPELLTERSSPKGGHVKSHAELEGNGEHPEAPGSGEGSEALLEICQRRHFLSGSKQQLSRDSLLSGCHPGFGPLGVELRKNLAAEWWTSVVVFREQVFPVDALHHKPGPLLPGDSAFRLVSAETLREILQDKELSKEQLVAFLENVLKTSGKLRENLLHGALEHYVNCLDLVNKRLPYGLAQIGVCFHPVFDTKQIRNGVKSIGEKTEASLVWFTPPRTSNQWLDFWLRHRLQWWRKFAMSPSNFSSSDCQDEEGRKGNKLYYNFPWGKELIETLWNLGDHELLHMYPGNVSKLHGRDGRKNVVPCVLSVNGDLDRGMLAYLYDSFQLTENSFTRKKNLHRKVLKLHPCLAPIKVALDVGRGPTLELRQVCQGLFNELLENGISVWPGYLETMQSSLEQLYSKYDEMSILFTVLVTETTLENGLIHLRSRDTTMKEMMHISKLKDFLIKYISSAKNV
Sequence of POLγA G303R;POLγB (P54098 26-1239 G303R, chain 1 of 2): as the sequence (P54098 26-1239 R275Q, chain 1 of 2) above, with Q250R, G278R counted along it
Sequence of POLγA G303R;POLγB (Q9UHN1 25-485, chain 2 of 2): as the sequence (Q9UHN1 25-485, chain 2 of 2) above
Sequence of POLγA L304R;POLγB (P54098 26-1239 L304R, chain 1 of 2): as the sequence (P54098 26-1239 R275Q, chain 1 of 2) above, with Q250R, L279R counted along it
Sequence of POLγA L304R;POLγB (Q9UHN1 25-485, chain 2 of 2): as the sequence (Q9UHN1 25-485, chain 2 of 2) above
Sequence of POLγA R232H;POLγB (P54098 26-1239 R232H, chain 1 of 2): as the sequence (P54098 26-1239 R275Q, chain 1 of 2) above, with R207H, Q250R counted along it
Sequence of POLγA R232H;POLγB (Q9UHN1 25-485, chain 2 of 2): as the sequence (Q9UHN1 25-485, chain 2 of 2) above
Sequence of POLγA H277L;POLγB (P54098 26-1239 H277L, chain 1 of 2): as the sequence (P54098 26-1239 R275Q, chain 1 of 2) above, with Q250R, H252L counted along it
Sequence of POLγA H277L;POLγB (Q9UHN1 25-485, chain 2 of 2): as the sequence (Q9UHN1 25-485, chain 2 of 2) above
Sequence of POLγA S305R;POLγB (P54098 26-1239 S305R, chain 1 of 2): as the sequence (P54098 26-1239 R275Q, chain 1 of 2) above, with Q250R, S280R counted along it
Sequence of POLγA S305R;POLγB (Q9UHN1 25-485, chain 2 of 2): as the sequence (Q9UHN1 25-485, chain 2 of 2) above
Sequence of POLγA G268A;POLγB (P54098 26-1239 G268A, chain 1 of 2): as the sequence (P54098 26-1239 R275Q, chain 1 of 2) above, with G243A, Q250R counted along it
Sequence of POLγA G268A;POLγB (Q9UHN1 25-485, chain 2 of 2): as the sequence (Q9UHN1 25-485, chain 2 of 2) above

B1: primed DNA template (20/35-mer) (dsDNA)
DNA 1: CGGTCGAGTCTAGAGGAGCC
DNA 2: GACTACGTCTATCCGGGCTCCTCTAGACTCGACCG
binds: all assays above
